Columns and labels:
[1] = system: Human full-thickness skin equivalents (MatTek Epiderm FT co-culture tissue models); test: Fibronectin production in human full-thickness skin equivalents (ELISA); assay type: cell-based; conditions: polypeptide 0.1% w/w, FIG. 19; for production of fibronectin as compared to untreated cells: each agent alone, day 4, retinol (10, unit not given), ascorbic acid 2% w/w, hyaluronic acid 0.1% w/w
[2] = system: Human full-thickness skin equivalents (MatTek Epiderm FT co-culture tissue models); test: Type III collagen production in human full-thickness skin equivalents (pro-collagen type III N-peptide ELISA); assay type: cell-based; conditions: polypeptide 0.1% w/w, ascorbic acid 2% w/w, FIG. 21; for production of type III collagen as compared to untreated cells: each agent alone, day 2, retinol (10, unit not given), hyaluronic acid 0.1% w/w
[3] = system: Human full-thickness skin equivalents (MatTek Epiderm FT co-culture tissue models); test: Elastin production in human full-thickness skin equivalents (ELISA); assay type: cell-based; conditions: polypeptide 0.1% w/w, retinol (10, unit not given), ascorbic acid 2% w/w, FIG. 20; for increase of elastin production relative to untreated control: day 2 supernatant; for production of elastin as compared to untreated cells: each agent alone, day 2, hyaluronic acid 0.1% w/w
Description: The combination of the truncated human type 21 collagen polypeptide with retinol increased elastin production by 45% relative to untreated control. This appeared to be a synergistic effect as treatment with truncated human type 21 collagen polypeptide alone increased elastin production by 20% and treatment with retinol alone increased elastin production by 17%. The combination of the truncated human type 21 collagen polypeptide with ascorbic acid increased elastin production by 33% relative to untreated control. This appeared to be a synergistic effect as treatment with truncated human type 21 collagen polypeptide alone increased elastin production by 20% and treatment with ascorbic acid alone increased elastin production by 5%.

[4] = system: Human full-thickness skin equivalents (MatTek Epiderm FT co-culture tissue models); test: Type I collagen production in human full-thickness skin equivalents (pro-collagen type I C-peptide ELISA); assay type: cell-based; conditions: polypeptide 0.1% w/w, FIG. 18; for production of type I collagen as compared to untreated cells: each agent alone, day 4, retinol (10, unit not given), ascorbic acid 2% w/w, hyaluronic acid 0.1% w/w
Procedure: Human full-thickness skin equivalents (MatTek Epiderm FT co-culture tissue models) which contain keratinocytes and fibroblasts were treated with a 0.1% w/w truncated human type 21 collagen polypeptide (having an amino acid sequence of SEQ ID NO: 16) (“C21”; FIG. […] Culture medium was changed every 2 days. On day 4, supernatant was collected and analyzed by enzyme-linked immunosorbent assay (ELISA) for pro-collagen type I C-peptide, which is a readout for total secreted collagen type I protein.

[5] = system: human primary fibroblasts; test: Fibroblast collagen type I protein secretion with truncated elastin (pro-collagen type I C-peptide ELISA); assay type: cell-based; conditions: 48 hours, compared with untreated control fibroblasts, FIG. 24
Procedure: Fibroblasts are the main source of the extracellular matrix peptides, including the structural proteins collagen and elastin. Human primary fibroblasts were evaluated for collagen type I protein secretion. Fibroblasts were cultured with a polypeptide according to SEQ ID NO: 52 for 48 hours. The culture supernatants were analyzed by ELISA for pro-collagen type I C-peptide, a readout for total secreted collagen type I protein.

[6] = Oxygen radical absorbance capacity (ORAC) assay, cell-free; assay type: biochemical; conditions: for anti-oxidative capacity (ORAC): FIG. 25
Procedure: The antioxidant potential of a polypeptide of SEQ ID NO: 16 was assessed using the oxygen free radical absorbance capacity (ORAC) assay. The ORAC assay is a cell-free assay that uses a fluorescent readout to measure a product's antioxidant capacity. Data is reported in Trolox (Vitamin E) equivalents.
A polypeptide of SEQ ID NO: 5 was also evaluated in the ORAC assay.
An oxygen radical absorbance capacity (ORAC) assay was performed to analyze the anti-oxidative capacity of a polypeptide according to SEQ ID NO: 52. The ORAC assay is a cell-free assay that uses a fluorescent readout to measure anti-oxidative capacity. Data is reported in Trolox (Vitamin E) equivalents (TEs).

Keratinocytes = test: Clariom microarray global gene expression in keratinocytes; assay type: cell-based; conditions: 0.03% w/w solution, 24 hours, relative to untreated cells
Procedure: Keratinocytes were incubated for 24 hours with media alone or with 0.03% w/w solution of a polypeptide according to SEQ ID NO: 52. RNA was extracted from the cells and analyzed by Clariom microarray (ThermoFisher) for global gene expression.
Keratinocytes were incubated for 24 hours with media alone (untreated) or with 0.03% w/w solution of a polypeptide according to SEQ ID NO: 52. RNA was extracted from the cells and analyzed by Clariom microarray (ThermoFisher) for global gene expression.

[7] = system: Human primary fibroblast cultures; test: Fibroblast elastin production (ELISA kit); assay type: cell-based; conditions: 0.03% w/w solution; 24 hours; compared to media alone; FIG. 28
Procedure: Human primary fibroblast cultures were treated for 24 hours with media alone (untreated) or with 0.03% w/w solution of a polypeptide having an amino acid sequence according to SEQ ID NO: 52. Supernatants were collected and evaluated for elastin production using an ELISA kit.

[8] = system: in vitro full thickness human skin tissue model (MatTek); test: IL-la ELISA in UVB-irradiated full thickness human skin tissue model; assay type: cell-based; conditions: 300 mJ/cm^2 UVB, then 0.01% for 24 hours; compared to untreated UVB-irradiated control; FIG. 14
Procedure: In a further study with the in vitro full thickness human skin tissue model (MatTek), the MatTek tissue models were irradiated with 300 mJ/cm^2 UVB light, then treated with 0.01% of a polypeptide of SEQ ID NO: 5 for 24 hours. Levels of pro-inflammatory cytokine IL-la was determined by ELISA.

facial skin [9] = test: Cutometer facial skin elasticity, clinical study of Example 7; assay type: in vivo, human; conditions: topical facial cream 0.05%, n=18, FIG. 17
Description: (§1) In a clinical study (n=18 subjects), subjects used a topical facial cream containing 0.05% of a polypeptide of SEQ ID NO: 5 for 2 weeks.

[10] = system: human primary keratinocytes; test: MTT viability of keratinocytes exposed to urban dust; assay type: cell-based; conditions: pre-treated with 0.03% for 24 hours, then 2 mg/ml urban dust (NIST 1649B) for 24 hours; compared with untreated exposed keratinocytes; FIG. 13
Procedure: To test for protection from urban dust, human primary keratinocytes were pre-treated with 0.03% of a polypeptide of SEQ ID NO: 5 for 24 hours, and then exposed to 2 mg/ml urban dust (NIST 1649B) for 24 hours. Cell viability was evaluated using the MTT metabolic colorimetric assay.

facial skin [11] = test: Facial skin hydration, clinical study of Example 7; assay type: in vivo, human; conditions: topical facial cream 0.05%, n=18, FIG. 16
Description: as §1

[12] = system: human primary keratinocytes; test: MTT viability of UVB-irradiated keratinocytes, post-irradiation treatment; assay type: cell-based; conditions: 40 mJ/cm^2 UVB, then 48 hours with 0.03%; compared with untreated UVB-irradiated keratinocytes; FIG. 12
Procedure: Human primary keratinocytes were irradiated with 40 mJ/cm^2 UVB light, then incubated for 48 hours in media with 0.03% of a polypeptide of SEQ ID NO: 5. Cell viability was evaluated using the MTT metabolic colorimetric assay.

[13] = system: in vitro full thickness human skin tissue model (MatTek); test: Collagen type I secretion by full thickness human skin tissue model (pro-collagen type I C-peptide ELISA); assay type: cell-based; conditions: treatment 48 hours, fresh media another 48 hours (96 hour timepoint); compared with untreated tissue models or positive control Vitamin B3; FIG. 10
Procedure: A series of in vitro experiments were conducted to assess the effects of a truncated jellyfish collagen on human skin fibroblasts and keratinocytes. An in vitro full thickness human skin tissue model (MatTek) which contains fibroblasts and keratinocytes was evaluated for collagen type I secretion after treatment with a polypeptide of SEQ ID NO: 5 for 48 hours. The tissue models were then rinsed and incubated with fresh media for another 48 hours (96 hour timepoint). The culture supernatants were analyzed by ELISA for pro-collagen type I C-peptide (a readout for total secreted collagen type I protein).

[14] = system: human primary keratinocytes; test: Thymine dimers in UVB-irradiated keratinocytes (OxiSelect UV-Induced DNA Damage ELISA); assay type: cell-based; conditions: 25 mJ/cm^2 UVB, then overnight with 0.03%; compared with untreated cells; FIG. 11
Procedure: In a further study, human primary keratinocytes were irradiated with 25 mJ/cm^2 UVB light, then incubated overnight in media with 0.03% of a polypeptide of SEQ ID NO: 5. DNA was extracted from the cells and analyzed for levels of thymine dimers (an indicator of DNA damage) using an OxiSelect UV-Induced DNA Damage ELISA kit.

[15] = day 4 supernatant, hyaluronic acid 0.1% w/w (low molecular weight, 15-40 kDa)

For O=C1O[C@H]([C@@H](O)CO)C(O)=C1O [ascorbic acid], the “production of fibronectin as compared to untreated cells” value [1] was “increased production”, the “increase of type III collagen production relative to untreated control” value ([2]; day 2 supernatant) was 80% and the “production of type III collagen as compared to untreated cells” value [2] was “increased production”. For the same molecule, the “increase of elastin production relative to untreated control” value [3] was 5%, the “production of elastin as compared to untreated cells” value [3] was “increased production” and the “production of type I collagen as compared to untreated cells” value [4] was “increased production”.

In the case of CC1=C(/C=C/C(C)=C/C=C/C(C)=C/CO)C(C)(C)CCC1 [retinol], the “production of fibronectin as compared to untreated cells” value [1] is reported as “increased production”, the “production of type III collagen as compared to untreated cells” value [2] is reported as “increased production” and the “increase of elastin production relative to untreated control” value [3] is reported as 17%. The “production of elastin as compared to untreated cells” value [3] was “increased production” and the “production of type I collagen as compared to untreated cells” value [4] was “increased production”.

For hyaluronic acid, the “increase of fibronectin production relative to untreated control” value [1, 15] was 30%, the “production of fibronectin as compared to untreated cells” value [1] was “increased production” and the “production of type III collagen as compared to untreated cells” value [2] was “increased production”. The “production of elastin as compared to untreated cells” value [3] was “increased production”, the “increase of type I collagen production relative to the untreated control” value [4, 15] was 72% and the “production of type I collagen as compared to untreated cells” value [4] was “increased production”.

B1: SEQ ID NO: 52: 13 kDa non-naturally occurring truncated human elastin without the DsbA secretion tag (protein)
chain: AGLGGVPGVGGLGVSAGAVVPQPGAGVKPGKVPGVGLPGVYPGGVLPGARFPGVGVLPGVPTGAGVKPKAPGVGGAFAGIPGVGPFGGPQPGVPLGYPIKAPKLPGGYGLPYTTGKLPYGYGPGGVAGAAGKAGYPTGTGVGPQ
With B1 the “secreted collagen type I (pro-collagen type I C-peptide)” value (from here on “secreted collagen type I”) ([5]; 0.025% w/w solution) was “higher levels”, the “secreted collagen type I” value ([5]; 0.05% w/w solution) was “higher levels” and the “secreted collagen type I” value ([5]; 0.1% w/w solution) was “higher levels”. For the same molecule, the “anti-oxidative capacity (ORAC)” value ([6]; 0.0125% w/w solution) was “anti-oxidative properties”, the “anti-oxidative capacity (ORAC)” value ([6]; 0.025% w/w solution) was “anti-oxidative properties” and the “anti-oxidative capacity (ORAC)” value ([6]; 0.05% w/w solution) was “anti-oxidative properties”. The “anti-oxidative capacity (ORAC)” value ([6]; 0.1% w/w solution) was “anti-oxidative properties”, the “anti-oxidative properties, Trolox (Vitamin E) equivalents” value ([6]; 0.2% w/w solution) was 228 μM Trolox and the “anti-oxidative capacity (ORAC)” value ([6]; 0.2% w/w solution) was “anti-oxidative properties”. For the same molecule, the “expression of antioxidant genes, including SOD2, GPX2, GPX4, GSTK1, GSTZ1, GSTA4, GSTM2, CCS, GPX1, GLRX, PRDXS, PRDX6, and PRDX2” value (Keratinocytes; FIG. 26) was “upregulated”, the “expression of pro-apoptotic genes, including APAF1, BAK1, CASP7, CASP8, FADD, MCL1, and MET” value (Keratinocytes; FIG. 27) was “downregulated” and the production of elastin [7] was “increased production”.

B2: SEQ ID NO: 5: truncated jellyfish collagen without a His tag, linker, and thrombin cleavage site (protein)
chain: GPQGVVGADGKDGTPGNAGQKGPSGEPGSPGKAGSAGEQGPPGKDGSNGEPGSPGKEGERGLAGPPGPDGRRGETGSPGIAGALGKPGLEGPKGYPGLRGRDGTNGKRGEQGETGPDGVRGIPGNDGQSGKPGIDGIDGTNGQPGEAGYQGGRGTRGQLGETGDVGQNGDRGAPGPDGSKGSAGRPGLR
For B2, the “levels of IL-la” value [8] was “lower levels”, the “skin elasticity (cutometer)” value (facial skin [9]; 1 week vs baseline) was “increased” and the “skin elasticity (cutometer)” value (facial skin [9]; 2 weeks vs baseline) was “increased”. For the same molecule, the “cell viability (MTT) after urban dust exposure” value [10] was “higher cell viability”, the skin hydration (facial skin [11]; 1 week vs baseline) was “increased” and the skin hydration (facial skin [11]; 2 weeks vs baseline) was “increased”. The “skin hydration relative to topical application of marine collagen” value (facial skin [11]; baseline, 1 week and 2 weeks) was “increased skin hydration”, the “antioxidant properties, Trolox (Vitamin E) equivalents” value ([6]; 0.1% solution) was 193 μM Trolox and the “cell viability (MTT)” value [12] was “higher cell viability”. The “secreted collagen type I” value [13] was “higher levels” and the “level of thymine dimers (DNA damage)” value [14] was “lower level”.
